Assay results published in article doi:10.1101/2022.06.30.497818.

Biological target: GST-tagged CDK2 (human cyclin-dependent kinase 2, 1-298) (human) (UniProt P24941)
Experiment: SPR

Bovine cyclin A (171-432 with a C-terminal 6His tag) (from UniProt P30274 171-430) (domain or fragment)
Kd: 2.8 nM
